The chains are these.
T1: human ferroportin (SLC40A1) fused in frame with GFP (human) (UniProt Q9NP59)
T1 sequence (looked up): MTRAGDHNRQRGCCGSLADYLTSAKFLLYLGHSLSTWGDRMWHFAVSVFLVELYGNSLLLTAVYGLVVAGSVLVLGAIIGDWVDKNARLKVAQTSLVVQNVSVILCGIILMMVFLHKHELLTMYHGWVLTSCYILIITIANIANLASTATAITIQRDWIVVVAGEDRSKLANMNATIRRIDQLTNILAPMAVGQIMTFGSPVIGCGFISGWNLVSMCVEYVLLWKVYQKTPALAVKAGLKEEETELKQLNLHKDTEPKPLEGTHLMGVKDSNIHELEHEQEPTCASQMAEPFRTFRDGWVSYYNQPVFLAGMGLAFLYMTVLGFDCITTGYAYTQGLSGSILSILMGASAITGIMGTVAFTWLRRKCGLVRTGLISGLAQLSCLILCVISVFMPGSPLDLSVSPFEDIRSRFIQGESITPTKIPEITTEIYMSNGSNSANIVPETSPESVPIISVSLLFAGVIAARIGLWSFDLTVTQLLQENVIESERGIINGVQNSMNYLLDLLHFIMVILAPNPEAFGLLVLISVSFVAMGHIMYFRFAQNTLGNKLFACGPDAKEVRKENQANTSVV

B1: Ref. Cmpd. 1 (peptide)
peptide: Isovaleryl-DTHFPCIKFKPRSKGCK-NH2
modifications: disulfide 6-16 (inferred); not fully specified (residue 10); also: K10: Lys[PEG11-Palm] (Lys[2PEG11-Palm]
B2: Compd. ID 10 (peptide)
peptide: DTHXPCIKXKKC
modifications: not fully specified; N-term isovaleric acid; 4 Dpa; 8 Lys[1Peg2-1Peg2-Ahx-C18_Diacid]; 9 bhPhe; 11 (D)Lys; C-term NH2
B3: Compd. ID 23 (peptide)
peptide: DTHXPCIKXKRC
modifications: N-term isovaleric acid; 4 Dpa; 8 (D)Lys; 9 bhPhe; 10 Lys(Ahx-Palm); 11 Arg(Dimethyl); C-term NH2
B4: Compd. ID 26 (peptide)
peptide: DTHXPCIKXKXC
modifications: N-term isovaleric acid; 4 Dpa; 8 (D)Lys; 9 bhPhe; 10 Lys(Ahx-Palm); 11 Cav; C-term NH2
B5: Compd. ID 11 (peptide)
peptide: DTHXPCIKXKC
modifications: not fully specified; N-term isovaleric acid; 4 Dpa; 8 Lys[1Peg2-1Peg2-Ahx-C18_Diacid]; 9 bhPhe; 10 (D)Lys; C-term NH2
B6: Compd. ID 21 (peptide)
peptide: DTHXPCIKXKXC
modifications: not fully specified; N-term isovaleric acid; 4 Dpa; 8 (D)Lys; 9 bhPhe; 10 Lys(Ahx-Palm); 11 Spiral_Pip; C-term NH2
B7: Compd. ID 37 (peptide)
peptide: DTHXPCIKXKKC
modifications: N-term isovaleric acid; 4 Dpa; 8 (D)Lys; 9 bhPhe; 10 Lys(2Peg11′_Ahx_Palm); 11 (D)Lys; C-term NH2
B8: RI-Mini Hepcidin (peptide)
peptide: FICIPFHTD
modifications: all residues D-amino acids (DPhe-DIle-DCys-DIle-DPro-DPhe-DHis-DThr-DAsp); Hy- at the N-terminus; C-term NH2
B9: Seq. No. 349 (peptide)
peptide: DTHXPCIKXKKC
modifications: N-term isovaleric acid; 4 Dpa; 8 (D)Lys; 9 bhPhe; 10 Lys(PEG12_Palm); 11 (D)Lys; C-term NH2
B10: Compd. ID 20 (peptide)
peptide: DTHXPCIKXKKC
modifications: N-term isovaleric acid; 4 Dpa; 8 (D)Lys; 9 bhPhe; 10 Lys(Ahx-Palm); 11 (D)Lys; C-term NH2
B11: Compd. ID 33 (peptide)
peptide: DTHXPCIKXKPRSKC
modifications: N-term isovaleric acid; 4 Dpa; 8 (D)Lys; 9 bhPhe; 10 Lys(2Peg11′_Palm); C-term NH2
B12: Compd. ID 22 (peptide)
peptide: DTHXPCIKXKRC
modifications: N-term isovaleric acid; 4 Dpa; 8 (D)Lys; 9 bhPhe; 10 Lys(Ahx-Palm); 11 Arg(Nitro); C-term NH2
B13: Compd. ID 24 (peptide)
peptide: DTHXPCIKXKXC
modifications: N-term isovaleric acid; 4 Dpa; 8 (D)Lys; 9 bhPhe; 10 Lys(Ahx-Palm); 11 Cit; C-term NH2
B14: Seq. No. 350 (peptide)
peptide: DTHXXCIKFKKC
modifications: N-term isovaleric acid; 4 Dpa; 5 bhPro; 8 (D)Lys; 10 Lys(PEG12_Palm); 11 (D)Lys; C-term NH2
B15: Compd. ID 36 (peptide)
peptide: DTHXPCIKXKKC
modifications: N-term isovaleric acid; 4 Dpa; 8 (D)Lys; 9 bhPhe; 10 Lys(2Peg11′_Sarc_Palm); 11 (D)Lys; C-term NH2
B16: Compd. ID 25 (peptide)
peptide: DTHXPCIKXKPC
modifications: N-term isovaleric acid; 4 Dpa; 8 (D)Lys; 9 bhPhe; 10 Lys(Ahx-Palm); 11 Pro(4-Amino); C-term NH2

Starred links: 1 amine or outer side, 2 acyl side, 3 side chain; linkers in the order of their positions; H or OH if unused. Positions of bridges follow the written chain, without caps; N, C: chain ends. Non-standard residues stand in square brackets, D forms with d. Groups on a side chain read outwards from the residue. *: point of attachment. PEG12 = NCCOCCOCCOCCOCCOCCOCCOCCOCCOCCOCCOCCOCCC(=O)O; Phe(4-COOH) = N[C@@H](Cc1ccc(C(=O)O)cc1)C(=O)O; Phe(4-tBu) = CC(C)(C)c1ccc(C[C@H](N)C(=O)O)cc1; Pro(4Amino) = proline with a 4-amino group; Phe(4-CN) = N#Cc1ccc(C[C@H](N)C(=O)O)cc1; Dip = N[C@H](C(=O)O)C(c1ccccc1)c1ccccc1; γGlu = O=C(O)[C@H](CCC(=O)[*:2])N[*:1]; 2Nal = N[C@@H](Cc1ccc2ccccc2c1)C(=O)O; AEF = NCCOc1ccc(C[C@H](N)C(=O)O)cc1; Arg(Dimethyl) = dimethyl-arginine; Palmitoyl = CCCCCCCCCCCCCCCC(=O)*; αMeF = C[C@](N)(Cc1ccccc1)C(=O)O; β3hF = N[C@H](CC(=O)O)Cc1ccccc1; Cit = NC(=O)NCCC[C@H](N)C(=O)O; Spiral_Pip = not defined here; Isovaleryl = CC(C)CC(=O)*; αMeC = C[C@](N)(CS)C(=O)O; Npc = nipecotic acid; Ahx = NCCCCCC(=O)O

This assay has as its target T1, human ferroportin (SLC40A1) fused in frame with GFP (human). Put plainly: cell-based or functional assay.
Isovaleryl-DTH[Dip][Npc]CIK([γGlu-Palmitoyl])[β3hF]C[dK]-NH2 (disulfide 6-10 (inferred)) [Compd. ID 19] showed an FPN EC50 of 4.56 nM.

In turn, B1 came in with an FPN EC50 of 30 nM and a Potency EC50 of 30 nM.

For the molecule Isovaleryl-DTH[Dip][Npc]CI[dK][Phe(4-COOH)]K([PEG12-Palmitoyl])KC-NH2 (disulfide 6-12 (inferred)) [Seq. No. 356], the IC50: FPN internalisation stood at 0.1 nM.

As for Isovaleryl-DTH[Dip]PCI[β3hF]K([Ahx-Palmitoyl])[dK]C-NH2 (disulfide 6-11 (inferred)) [Compd. ID 18], the FPN EC50 is 10.8 nM.

B2: the FPN EC50 came out at 3.05 nM.

Isovaleryl-DTH[Dip][Npc]CI[dK][β3hF]KC[dK]-NH2 (disulfide 6-11 (inferred); not fully specified (residue 10)) [Compd. ID 15] yielded an FPN EC50 of more than 3000 nM.

The molecule Isovaleryl-DTH[Dip][Npc]CI[dK][Phe(4-tBu)]K([PEG12-Palmitoyl])KC-NH2 (disulfide 6-12 (inferred)) [Seq. No. 359] yielded an IC50: FPN internalisation of 8.57 nM.

For B3, the FPN EC50 was 41.6 nM.

With B4, the FPN EC50 turned out to be 32.2 nM.

The molecule Isovaleryl-DTH[Dip]PCI[dK][β3hF]K([PEG12-Palmitoyl])P[dK]S[dK][Sarc]C[dK]-NH2 (disulfide 6-16 (inferred)) [Compd. ID 35] had an FPN EC50 of 23.1 nM.

In turn, Isovaleryl-DTH[Dip][Npc]CI[dK][β3hF]K([γGlu-Palmitoyl])C[dK]-NH2 (disulfide 6-11 (inferred)) [Compd. ID 13] returned an FPN EC50 of 16.1 nM.

As to Isovaleryl-DTH[Dip][Npc]CI[dK][2Nal]K([PEG12-Palmitoyl])KC-NH2 (disulfide 6-12 (inferred)) [Seq. No. 357], the IC50: FPN internalisation is 10.2 nM.

DTHXPCIKXKKC (N-term isovaleric acid; 4 Dpa; 8 (D)Lys; 9 bhPhe; 10 Lys[Palm]; C-term NH2) [Compd. ID 16] returned an FPN EC50 of 5.85 nM.

Take B5: the FPN EC50 was 12.7 nM.

B6: the FPN EC50 is 37.5 nM.

For the molecule Isovaleryl-DTH[Dip][Npc]CI[dK][Phe(4-CN)]K([PEG12-Palmitoyl])KC-NH2 (disulfide 6-12 (inferred)) [Seq. No. 347], the IC50: FPN internalisation is 23 nM.

Regarding B7, the FPN EC50 was 19.6 nM.

Take B8: the Potency EC50 (nM) is more than 10000 nM.

Regarding Isovaleryl-DTHFPCI[dK]FK([PEG12-Palmitoyl])K[αMeC]-NH2 (disulfide 6-12 (inferred)) [Seq. No. 355], the IC50: FPN internalisation amounted to 7.55 nM.

In the case of Isovaleryl-DTH[Dip]PCI[Arg(Nitro)][β3hF]K([Ahx-Palmitoyl])[dK]C-NH2 (disulfide 6-12 (inferred)) [Compd. ID 28], the FPN EC50 is 27.1 nM.

Isovaleryl-DTH[Dip]PCI[Pro(4Amino)][β3hF]K([Ahx-Palmitoyl])[dK]C-NH2 (disulfide 6-12 (inferred)) [Compd. ID 31] showed an FPN EC50 of 18 nM.

Take Isovaleryl-DTHFP[αMeC]I[dK]FK([PEG12-Palmitoyl])KC-NH2 (disulfide 6-12 (inferred)) [Seq. No. 353]: the IC50: FPN internalisation was 21.5 nM.

For the molecule Isovaleryl-DTH[Dip][Npc]CI[dK][AEF]K([PEG12-Palmitoyl])KC-NH2 (disulfide 6-12 (inferred)) [Seq. No. 358], the IC50: FPN internalisation was more than 3000 nM.

Molecule Isovaleryl-DTH[Dip][Npc]CI[dK]FK([PEG12-Palmitoyl])KC-NH2 (disulfide 6-12 (inferred)) [Seq. No. 360] registered an IC50: FPN internalisation of 9.64 nM.

In turn, B9 gave an IC50: FPN internalisation of 11.2 nM.

The molecule B10 had an FPN EC50 of 6.66 nM.

In turn, B11 gave an FPN EC50 of 25.4 nM.

With B12, the FPN EC50 was found to be 30.1 nM.

In turn, Isovaleryl-DTH[Dip][Npc]CI[dK][β3hF]K([Ahx-Palmitoyl])C[dK]-NH2 (disulfide 6-11 (inferred)) [Compd. ID 12] registered an FPN EC50 of 11.5 nM.

With DTHXPCIKXKKC (N-term isovaleric acid; 4 Dpa; 8 (D)Lys; 9 bhPhe; 10 Lys(Ahx-Palm); C-term NH2) [Compd. ID 17], the FPN EC50 was 8.29 nM.

B13: the FPN EC50 amounted to 45.8 nM.

Regarding Isovaleryl-DTHFP[αMeC]I[dK]FK([PEG12-Palmitoyl])K[αMeC]-NH2 (disulfide 6-12 (inferred)) [Seq. No. 354], the IC50: FPN internalisation came out at 10 nM.

In turn, B14 came in with an IC50: FPN internalisation of 0.8 nM.

As for Isovaleryl-DTH[Dip]PCI[Arg(Dimethyl)][β3hF]K([Ahx-Palmitoyl])[dK]C-NH2 (disulfide 6-12 (inferred)) [Compd. ID 29], the FPN EC50 worked out at 10.6 nM.

The molecule B15 registered an FPN EC50 of 10.9 nM.

Molecule Isovaleryl-DTH[Dip]PCI[Spiral_Pip][β3hF]K([Ahx-Palmitoyl])[dK]C-NH2 (disulfide 6-12 (inferred); reading uncertain) [Compd. ID 27] registered an FPN EC50 of 26.3 nM.

As for Isovaleryl-DTH[Dip]PCI[Cit][β3hF]K([Ahx-Palmitoyl])[dK]C-NH2 (disulfide 6-12 (inferred)) [Compd. ID 30], the FPN EC50 was determined as 26.6 nM.

With Isovaleryl-DTH[Dip][Npc]CI[dK]FK([PEG12-Palmitoyl])[dK]C-NH2 (disulfide 6-12 (inferred)) [Seq. No. 352], the IC50: FPN internalisation worked out at 6.48 nM.

For the molecule B16, the FPN EC50 stood at 25.7 nM.

In turn, Isovaleryl-DTHF[Npc]CI[dK]FK([PEG12-Palmitoyl])[dK]C-NH2 (disulfide 6-12 (inferred)) [Seq. No. 351] registered an IC50: FPN internalisation of 13.2 nM.

Molecule Isovaleryl-DTH[Dip][Npc]CI[dK][αMeF]K([PEG12-Palmitoyl])KC-NH2 (disulfide 6-12 (inferred)) [Seq. No. 348] had an IC50: FPN internalisation of 2.1 nM.

Isovaleryl-DTH[Dip]PCI[dK][β3hF]K([PEG12-Palmitoyl])PRSK[Sarc]C-NH2 (disulfide 6-16 (inferred)) [Compd. ID 34] returned an FPN EC50 of 23.6 nM.
